According to paper PMC5903867, “Hexameric and pentameric complexes of the ExbBD energizer in the Ton system” (eLife, 2018):

B1: ExbB (natural protein, Escherichia coli, UniProt P0ABU7 1-244, looked up)
chain: MGNNLMQTDLSVWGMYQHADIVVKCVMIGLILASVVTWAIFFSKSVEFFNQKRRLKREQQLLAEARSLNQANDIAADFGSKSLSLHLLNEAQNELELSEGSDDNEGIKERTSFRLERRVAAVGRQMGRGNGYLATIGAISPFVGLFGTVWGIMNSFIGIAQTQTTNLAVVAPGIAEALLATAIGLVAAIPAVVIYNVFARQIGGFKAMLGDVAAQVLLLQSRDLDLEASAAAHPVRVAQKLRAG
notes: ExbB, Escherichia coli, full length; inner membrane protein of the Ton system; residues about 10-234 resolved in the crystal; Forms hexamers and pentamers depending on pH, so copies is left open; also called ExbB hexamer; ExbB pentamer; source: E. coli BL21 (DE3) Gold, pET-21b, co-expressed with ExbD, purified from the membrane fraction in detergent (IMAC, SEC); not shown: His6, C-terminal, kept

Experiments:
[1] = molecular target: B1; assay: cryo-EM structure; single particle, frozen-hydrated ExbBD complex in LMNG, 10 mM Tris-HCl pH 8.0; reference-free 2D classification and 3D reconstruction of the hexameric complex at 6.7 Å, no symmetry applied; settings: both partners purified
[2] = molecular target: the molecule itself; assay: as above
[3] = molecular target: B1; assay: cryo-EM structure; single particle, frozen-hydrated ExbBD complex in LMNG, 10 mM Na-citrate pH 5.4; reference-free 2D classification and 3D reconstruction of the pentameric complex at 7.1 Å, 5-fold symmetry enforced; settings: both partners purified
[4] = molecular target: the molecule itself; assay: negative-stain EM of 2D crystals; purified ExbBD complex (C8E4) reconstituted with E. coli total lipid extract by dialysis, 25 mM Na-citrate pH 5.4, 150 mM NaCl, 4°C; Fourier filtering of crystal patches
[5] = molecular target: the molecule itself; assay: crystal structure; ExbBD complex purified in C8E4 or C10E5; crystals grown at pH 9.0 (0.1 M glycine, 0.15 M CaCl2, ~40% PEG 350 MME), 20°C; space group P2_(1), 2.8 Å, molecular replacement
[6] = molecular target: the molecule itself; assay: cryo-EM structure; single particle, frozen-hydrated ExbBD complex in LMNG, 10 mM Na-citrate pH 5.4; reference-free 2D classification and 3D reconstruction of the pentameric complex at 7.1 Å, 5-fold symmetry enforced

Row | stoichiometry N [1] [ExbD per ExbB hexamer] | stoichiometry N [3] [ExbD per ExbB pentamer] | Binder | stoichiometry N [2] [subunits] | stoichiometry N [4] [subunits] | ratio of hexamer to pentamer (printed as pentamer:hexamer) [2] [hexamer per pentamer] | stoichiometry N [5] [subunits] | ratio of pentamer to hexamer [6] [pentamer per hexamer]
1 | 3 | 1 | ExbD (natural protein, Escherichia coli, UniProt P0ABV2 1-141, looked up, ExbD, Escherichia coli, full length, no tag; only the TM helix is modelled in the cryo-EM maps; The PDB entries hold only the TM helix (ExbDTM) of ExbD; also called ExbDTM (its TM helix as modelled); ExbD trimer; source: E. coli BL21 (DE3) Gold, pET-21b, co-expressed with ExbB-His6, co-purified in detergent (IMAC, SEC)) MAMHLNENLDDNGEMHDINVTPFIDVMLVLLIIFMVAAPLATVDVKVNLPASTSTPQPRPEKPVYLSVKADNSMFIGNDPVTDETMITALNALTEGKKDTTIFFRADKTVDYETLMKVMDTLHQAGYLKIGLVGEETAKAK | 3 |  |  |  | 
2 |  |  | B1 |  | 5 | 3 | 6 | 3
